The Human Domainome abundance scans (Beltran et al. 2025)

B1: Homeobox protein cut-like 1, residues 941 to 1008; numbered along this chain, P39880 (parent)
chain: QEVDTIELTRQVKEKLAKNGICQRIFGEKVLGLSQGSVSDMLSRPKPWSKLTQKGREPFIRMQLWLNG

Variants of: B1
Assay: abundance fitness (aPCA) (normalised: wild type 0, dead -1); higher = more abundant; growth selection in yeast, the domain comes from the species named
Settings: Homo sapiens

Abundance fitness of substitutions, site by site:
R10: C -0.22; D -0.112; E -0.056; F -0.307; G -0.089; H -0.226; I -0.301; K 0.074; L -0.246; N 0.036; P -0.157; Q -0.135; S -0.111; W -0.509; Y -0.306
Q11: A -0.13; C -0.323; D -0.298; G -0.165; H -0.114; I -0.308; K 0.132; L -0.125; N -0.234; P -0.092; R -0.084; S -0.152; T -0.142; V -0.274; W -0.448
V12: A -0.171; C -0.461; D -0.049; E -0.113; F -0.289; G -0.01; H -0.142; I -0.338; K -0.183; L -0.359; M -0.084; N -0.28; P -0.008; Q -0.143; R -0.131; S -0.091; T -0.177; W -0.226; Y -0.175
K13: A -0.339; C -0.459; D -0.262; E -0.208; F -0.768; G -0.419; H -0.254; L -0.326; M -0.278; N -0.132; P -0.159; Q -0.1; R -0.119; S -0.35; T -0.146; V -0.392; W -0.459; Y -0.475
E14: C -0.086; F -0.443; G -0.156; H -0.498; K -0.111; L -0.152; N -0.063; P 0.005; Q -0.14; R -0.054; S -0.143; T -0.121; V -0.214; W -0.221; Y -0.418
K15: A -0.147; C -0.119; D -0.586; E -0.083; F -0.175; G -0.366; H -0.259; I -0.085; L -0.057; M -0.148; N -0.012; P -0.052; Q -0.119; R -0.096; S -0.221; T -0.196; V -0.228; W -0.238; Y 0.145
L16: A -0.188; C -0.073; D -0.189; E -0.032; F -0.257; G -0.015; H 0.009; I -0.198; M 0.107; N -0.217; P 0.004; Q -0.102; R -0.033; S -0.033; T 0.023; V -0.162; W -0.194; Y -0.278
A17: C -0.154; D 0.014; E -0.066; F -0.116; G -0.205; H -0.108; I -0.022; K 0.033; L -0.148; M -0.171; N -0.123; Q -0.115; R -0.011; T -0.163; V -0.087; W -0.269; Y -0.214
K18: A -0.083; C -0.261; D -0.397; E 0; F -0.287; G -0.226; H -0.412; I -0.085; L -0.168; M -0.059; N -0.051; Q -0.134; R -0.139; S -0.102; V -0.184; W -0.272; Y -0.527
N19: A -0.033; D 0.17; E 0.098; F 0.07; G -0.087; I 0.075; K -0.019; L 0.125; M 0.017; P 0.043; Q 0.042; T 0.034; V 0.023; W -0.234; Y -0.331
G20: A -0.135; C -0.317; D -0.279; E -0.331; F -0.239; H -0.24; I -0.361; K 0.046; L -0.277; M -0.231; P -0.141; Q 0.067; R -0.048; S -0.112; T -0.087; V -0.441; W -0.287; Y -0.104
I21: A -0.489; C -0.419; D -0.559; E -0.22; F -0.115; G -0.473; H -0.425; K -0.381; L -0.08; M -0.1; N -0.283; P -0.319; Q -0.184; R -0.402; T -0.197; W 0; Y 0.019
C22: A -0.053; D -0.045; E -0.155; F -0.133; G -0.27; H -0.006; K -0.229; L -0.102; M -0.062; N -0.192; P -0.069; Q -0.256; R -0.16; S 0.049; T 0.02; V -0.196; W -0.161; Y -0.28
Q23: A -0.161; C -0.281; D -0.429; E -0.068; F -0.265; G -0.28; H -0.117; I -0.537; K -0.245; L -0.038; M -0.195; N -0.133; P -0.044; R -0.019; S -0.029; T -0.104; V -0.321; W -0.044; Y -0.162
R24: C -0.22; D -0.074; E 0.109; F -0.362; G -0.224; I -0.29; K -0.07; L -0.253; M -0.315; N 0.005; P -0.559; Q -0.088; S -0.136; T -0.268; V -0.204; W -0.144; Y -0.101
I25: A -0.002; C -0.283; D 0.156; E 0.125; F 0.07; G -0.225; H 0.073; K -0.022; L -0.09; P -0.578; Q -0.073; S -0.03; T 0.083; V -0.008; W 0.021; Y 0.014
F26: A -0.649; C -0.709; D -1.05; E -0.883; G -0.622; H -0.927; I -0.45; K -0.45; L -0.312; M -0.459; N -0.991; P -0.574; Q -0.721; R -0.526; S -0.704; T -0.796; V -0.648; W 0.03; Y -0.741
G27: A 0.1; C -0.019; D -0.545; E -0.131; F -0.086; H -0.184; I -0.067; K -0.137; L -0.12; M -0.208; Q -0.314; R -0.177; S -0.008; T -0.201; V -0.231; W -0.569; Y -0.144
E28: A -0.036; C -0.286; D -0.307; F -0.195; G -0.072; H -0.197; I -0.277; K -0.106; L -0.113; N -0.134; P -0.145; Q -0.127; R -0.026; T -0.041; V -0.214; W -0.104; Y -0.229
K29: A -0.258; C -0.148; D -0.202; E 0.039; F -0.524; G -0.17; H -0.121; I -0.57
